Assay results reported in IntAct's records for PubMed 22289178.

B1: Alpha-crystallin B chain (Mus musculus), P23927 (parent)
chain: MDIAIHHPWIRRPFFPFHSPSRLFDQFFGEHLLESDLFSTATSLSPFYLRPPSFLRAPSWIDTGLSEMRLEKDRFSVNLDVKHFSPEELKVKVLGDVIEVHGKHEERQDEHGFISREFHRKYRIPADVDPLTITSSLSSDGVLTVNGPRKQVSGPERTIPITREEKPAVAAAPKK
B2: Gamma-crystallin D (Homo sapiens), P07320 (parent)
chain: MGKITLYEDRGFQGRHYECSSDHPNLQPYLSRCNSARVDSGCWMLYEQPNYSGLQYFLRRGDYADHQQWMGLSDSVRSCRLIPHSGSHRIRLYEREDYRGQMIEFTEDCSCLQDRFRFNEIHSLNVLEGSWVLYELSNYRGRQYLLMPGDYRRYQDWGATNARVGSLRRVIDFS
partner: B1 chain
B3: Gamma-crystallin D (Homo sapiens), P07320 (parent)
chain: B2 chain
partner: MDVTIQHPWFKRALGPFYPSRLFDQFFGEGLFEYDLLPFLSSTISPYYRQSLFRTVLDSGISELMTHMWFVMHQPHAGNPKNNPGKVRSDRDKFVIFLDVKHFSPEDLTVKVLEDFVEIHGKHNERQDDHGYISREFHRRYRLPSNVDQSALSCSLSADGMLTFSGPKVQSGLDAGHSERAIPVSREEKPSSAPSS

Variants of: B1
Conditions: with crgd_human CRYGD, P07320

Row | effect of a mutation on the interaction | Variant
1 | increasing interaction | S45D
2 | increasing interaction | S59D
3 | increasing interaction | S19D

Variants of: B2
Conditions: with cryab_mouse Cryab, P23927

Row | effect of a mutation on the interaction | Variant
4 | increasing interaction | I4F
5 | increasing interaction | V76D

Variants of: B3
Conditions: with cryaa_rat Cryaa

Row | effect of a mutation on the interaction | Variant
6 | increasing interaction | I4F
7 | increasing interaction | V76D
